T1: FcγRIIb (human, UniProt P31994 43-217)
T1 construct: extracellular domain; also called 2b
T1 sequence (looked up): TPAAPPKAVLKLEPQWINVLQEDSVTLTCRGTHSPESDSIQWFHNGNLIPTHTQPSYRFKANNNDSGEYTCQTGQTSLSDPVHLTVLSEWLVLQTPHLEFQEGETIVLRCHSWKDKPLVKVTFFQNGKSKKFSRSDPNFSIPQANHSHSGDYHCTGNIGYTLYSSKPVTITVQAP

T2: FcγRIIb extracellular domain with C-terminal His tag (human, UniProt P31994 43-217)
T2 construct: extracellular domain; soluble receptor expressed in FreeStyle293 cells, used as analyte in Biacore; also called FcgRIIb; 2b; not shown: His tag attached to the C terminus
T2 sequence (looked up): T1 sequence (looked up)

T3: FcγRIIa H (human, UniProt P12318 34-217)
T3 construct: extracellular domain; also called FcγRIIa type H; 2aH
T3 sequence (looked up): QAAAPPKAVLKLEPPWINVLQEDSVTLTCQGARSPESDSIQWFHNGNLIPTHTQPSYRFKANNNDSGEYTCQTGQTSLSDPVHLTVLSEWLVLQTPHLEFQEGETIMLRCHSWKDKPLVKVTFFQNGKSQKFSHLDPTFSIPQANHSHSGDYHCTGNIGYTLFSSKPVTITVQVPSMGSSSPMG

B1: GpH7-A5/GpH7-B3 variant S267_12R/GpL16-k0 (antibody, human IgG1, kappa)
heavy 1: not shown
heavy 2: not shown
light: DIVMTQSPLSLPVTPGEPASISCQASESLVHSNRNTYLHWYLQKPGQSPQLLIYKVSNRFSGVPDRFSGSGSGTDFTLKISRVEAEDVGVYYCSQNTHVPPTFGQGTKVEIERTVAAPSVFIFPPSDEQLKSGTASVVCLLNNFYPREAKVQWKVDNALQSGNSQESVTEQDSKDSTYSLSSTLTLSKADYEKHKVYACEVTHQGLSSPVTKSFNRGEC
notes: heterodimerized IgG1, mutation in one H chain only; also called He Ab
B2: GpH7-A5/GpH7-B3 variant S324_18N/GpL16-k0 (antibody, human IgG1, kappa)
heavy 1: not shown
heavy 2: not shown
light: B1 light
notes: heterodimerized anti-glypican-3 IgG1; alteration in the GpH7-B3 chain only; also called He Ab
B3: GpH7-A5/GpH7-B3 variant K334_18N/GpL16-k0 (antibody, human IgG1, kappa)
heavy 1: not shown
heavy 2: not shown
light: B1 light
notes: as for B1
B4: GpH7-A5/GpH7-B3 variant A327_01G/GpL16-k0 (antibody, human IgG1, kappa)
heavy 1: not shown
heavy 2: not shown
light: B1 light
notes: as for B1
B5: GpH7-A5/GpH7-B3 variant S324_19Q/GpL16-k0 (antibody, human IgG1, kappa)
heavy 1: not shown
heavy 2: not shown
light: B1 light
notes: as for B2
B6: GpH7-A5/GpH7-B3 variant Q295_02A/GpL16-k0 (antibody, human IgG1, kappa)
heavy 1: not shown
heavy 2: not shown
light: B1 light
notes: as for B2
B7: GpH7-A5/GpH7-B3 variant Q295_04F/GpL16-k0 (antibody, human IgG1, kappa)
heavy 1: not shown
heavy 2: not shown
light: B1 light
notes: as for B2
B8: GpH7-A5/GpH7-B3 variant S324_10E/GpL16-k0 (antibody, human IgG1, kappa)
heavy 1: not shown
heavy 2: not shown
light: B1 light
notes: as for B2
B9: GpH7-A5/GpH7-B3 variant K326_16H/GpL16-k0 (antibody, human IgG1, kappa)
heavy 1: not shown
heavy 2: not shown
light: B1 light
notes: as for B1
B10: GpH7-A5/GpH7-B3 variant K326_15Y/GpL16-k0 (antibody, human IgG1, kappa)
heavy 1: not shown
heavy 2: not shown
light: B1 light
notes: as for B1
B11: GpH7-A5/GpH7-B3 variant L328_03V/GpL16-k0 (antibody, human IgG1, kappa)
heavy 1: not shown
heavy 2: not shown
light: B1 light
notes: as for B1
B12: GpH7-A5/GpH7-B3 variant K334_02A/GpL16-k0 (antibody, human IgG1, kappa)
heavy 1: not shown
heavy 2: not shown
light: B1 light
notes: as for B1
B13: GpH7-A5/GpH7-B3 variant Q295_03V/GpL16-k0 (antibody, human IgG1, kappa)
heavy 1: not shown
heavy 2: not shown
light: B1 light
notes: as for B2
B14: GpH7-A5/GpH7-B3 variant S324_11K/GpL16-k0 (antibody, human IgG1, kappa)
heavy 1: not shown
heavy 2: not shown
light: B1 light
notes: as for B2
B15: GpH7-A5/GpH7-B3 variant A327_07I/GpL16-k0 (antibody, human IgG1, kappa)
heavy 1: not shown
heavy 2: not shown
light: B1 light
notes: as for B1
B16: GpH7-A5/GpH7-B3 variant P329_02A/GpL16-k0 (antibody, human IgG1, kappa)
heavy 1: not shown
heavy 2: not shown
light: B1 light
notes: as for B2
B17: GpH7-A5/GpH7-B3 variant Q295_01G/GpL16-k0 (antibody, human IgG1, kappa)
heavy 1: not shown
heavy 2: not shown
light: B1 light
notes: as for B2
B18: GpH7-A5/GpH7-B3 variant Q295_11K/GpL16-k0 (antibody, human IgG1, kappa)
heavy 1: not shown
heavy 2: not shown
light: B1 light
notes: as for B2
B19: GpH7-A5/GpH7-B3 variant K334_10E/GpL16-k0 (antibody, human IgG1, kappa)
heavy 1: not shown
heavy 2: not shown
light: B1 light
notes: as for B1
B20: GpH7-A5/GpH7-B3 variant S324_08L/GpL16-k0 (antibody, human IgG1, kappa)
heavy 1: not shown
heavy 2: not shown
light: B1 light
notes: as for B2
B21: GpH7-A5/GpH7-B3 variant Q295_14T/GpL16-k0 (antibody, human IgG1, kappa)
heavy 1: not shown
heavy 2: not shown
light: B1 light
notes: as for B2

Experiments:
FcγRIIb = biological target: T1, FcγRIIb; experiment: SPR (Biacore), relative binding vs GpH7-A5/GpH7-B3/GpL16-k0
Procedure: (§1) The heterodimerized antibodies He Abs in which one of the H chains was introduced with an alteration were assayed for their binding activities to each activating FcγR and inhibitory FcγR according to the method described in Example 4. […] The activating FcγRs in FIGS. 26, 27, 28, and 29 are FcγRIa, FcγRIIa (R), FcγRIIa (H), and FcγRIIIa, respectively.
(§2) Analysis of interaction between objective antibody and the FcγR was carried out using Biacore T100 (GE Healthcare). HBS-EP+ (GE Healthcare) was used as the running buffer, and the measurement temperature was set to 25° C. Chips produced by immobilizing the antigen peptide by the amine coupling method to a Series S Sencor Chip CM5 (GE Healthcare), or alternatively, chips produced by allowing preliminarily biotinylated antigen peptides to interact with and immobilize onto a Series S Sensor Chip SA (certified) (GE Healthcare) were used. Antibodies of interest were captured onto an antigen peptide-immobilized chip, and allowed to interact to each FcγR diluted with running buffer. To regenerate and repeatedly use the chip, the antibodies captured on the chip were washed off by reacting 10 mM glycine-HCl, pH 1.5.

[1] = biological target: T4, FcγRIa extracellular domain with C-terminal His tag (human, UniProt P12314 16-292); experiment: SPR (Biacore), antibody captured on antigen peptide chip, FcγR as analyte; relative binding
T4 construct: extracellular domain; soluble receptor expressed in FreeStyle293 cells, used as analyte in Biacore; also called FcgRI; 1a; not shown: His tag attached to the C terminus
T4 sequence (P12314 16-292): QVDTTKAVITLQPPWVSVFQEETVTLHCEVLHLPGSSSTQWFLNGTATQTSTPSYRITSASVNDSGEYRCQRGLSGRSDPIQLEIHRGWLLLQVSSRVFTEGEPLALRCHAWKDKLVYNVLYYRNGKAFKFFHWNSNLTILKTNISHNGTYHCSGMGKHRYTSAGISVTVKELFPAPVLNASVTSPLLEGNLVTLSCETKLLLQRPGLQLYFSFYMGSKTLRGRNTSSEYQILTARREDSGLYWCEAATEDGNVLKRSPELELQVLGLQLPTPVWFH

[2] = biological target: T2, FcγRIIb extracellular domain with …; experiment: as above
FcγRIIa H = biological target: T3, FcγRIIa H; experiment: SPR (Biacore), relative binding vs GpH7-A5/GpH7-B3/GpL16-k0
Procedure: as §1, §2

Row | Binder | He/Con_2b (FcγRIIb) | He/Con_1a [1] | He/Con_2b [2] | He/Con_2aH (FcγRIIa H)
1 | B1 | 11.3 % of control He Ab (=100) | – | – | –
2 | B2 | – | 116 % of control GpH7-A5/GpH7-B3/GpL16-k0 (=100) | 81.1 % of control GpH7-A5/GpH7-B3/GpL16-k0 (=100) | –
3 | B3 | 115 % of control He Ab (=100) | – | – | 99.7 % of control He Ab (=100)
4 | B4 | 116 % of control He Ab (=100) | – | – | 97.2 % of control He Ab (=100)
5 | B5 | – | 112 % of control GpH7-A5/GpH7-B3/GpL16-k0 (=100) | 66.8 % of control GpH7-A5/GpH7-B3/GpL16-k0 (=100) | –
6 | B6 | – | 104 % of control GpH7-A5/GpH7-B3/GpL16-k0 (=100) | 79.7 % of control GpH7-A5/GpH7-B3/GpL16-k0 (=100) | –
7 | B7 | – | 102 % of control GpH7-A5/GpH7-B3/GpL16-k0 (=100) | 64.7 % of control GpH7-A5/GpH7-B3/GpL16-k0 (=100) | –
8 | B8 | – | 105 % of control GpH7-A5/GpH7-B3/GpL16-k0 (=100) | 77.4 % of control GpH7-A5/GpH7-B3/GpL16-k0 (=100) | –
9 | B9 | 119 % of control He Ab (=100) | – | – | 97.9 % of control He Ab (=100)
10 | B10 | 159 % of control He Ab (=100) | – | – | 98.3 % of control He Ab (=100)
11 | B11 | 126 % of control He Ab (=100) | – | – | 97.8 % of control He Ab (=100)
12 | B12 | 108 % of control He Ab (=100) | – | – | 97 % of control He Ab (=100)
13 | B13 | – | 104 % of control GpH7-A5/GpH7-B3/GpL16-k0 (=100) | 75.7 % of control GpH7-A5/GpH7-B3/GpL16-k0 (=100) | –
14 | B14 | – | 102 % of control GpH7-A5/GpH7-B3/GpL16-k0 (=100) | 68.6 % of control GpH7-A5/GpH7-B3/GpL16-k0 (=100) | –
15 | B15 | 127 % of control He Ab (=100) | – | – | 58.4 % of control He Ab (=100)
16 | B16 | – | 102 % of control GpH7-A5/GpH7-B3/GpL16-k0 (=100) | 40.5 % of control GpH7-A5/GpH7-B3/GpL16-k0 (=100) | –
17 | B17 | – | 97.6 % of control GpH7-A5/GpH7-B3/GpL16-k0 (=100) | 46 % of control GpH7-A5/GpH7-B3/GpL16-k0 (=100) | –
18 | B18 | – | 101 % of control GpH7-A5/GpH7-B3/GpL16-k0 (=100) | 70.4 % of control GpH7-A5/GpH7-B3/GpL16-k0 (=100) | –
19 | B19 | 114 % of control He Ab (=100) | – | – | 98.2 % of control He Ab (=100)
20 | B20 | – | 103 % of control GpH7-A5/GpH7-B3/GpL16-k0 (=100) | 89.6 % of control GpH7-A5/GpH7-B3/GpL16-k0 (=100) | –
21 | B21 | – | 103 % of control GpH7-A5/GpH7-B3/GpL16-k0 (=100) | 66.8 % of control GpH7-A5/GpH7-B3/GpL16-k0 (=100) | –

— patent US20180155451A1 (published 2018)
